From US7132274B2, “Method for identifying modulators of CLK-1 and UbiF activity” (priority 2003, dated 2006)

Each molecule was assayed on E. coli JF496 (ubiF411) (assay: JF496 complementation (growth rescue) assay). Details: C. elegans CLK-1 variants expressed in JF496; growth rate relative to wild type CLK-1.
Format: cell-based
From the text: JF496 is useful for complementation assays using eukaryotic clk-1. As with all other ubi mutants, JF496 has a weak growth in liquid culture, and cannot use succinate as a unique carbon source. These characteristics were used to develop a gain-of-function assay, where JF496 was transformed with a eukaryotic clk-1 (here from C. elegans) and then wild-type growth was identified. Transgenic E. coli ubiF (Kwon et al., 2000 FEMS Microbiol Lett, 186, 157–161), and clk-1 from proteobacteria (Stenmark et al., 2001 J Biol Chem, 276, 33297–33300) have been tested in JF496.
Growth conditions—For complementation assays, plasmids are freshly transformed by electroporation into E. coli JF496 ubiF(DE3) and grown overnight at 37° C. in 5 mL LB with 50 μg/mL ampicillin. The cultures are diluted 1/10 and OD600 measured. A bacterial volume corresponding to an OD600 of 0.03 in 5 mL is taken, centrifuged and resuspended in 100 μl of M9 medium. It is then added into 5 mL M9 containing 1 mM MgSO4, 20 μM CaCl2, 0.5 μg/mL thiamine, 0.12% casamino acids, 40 μg/mL D-L-methionine, 100 μg/mL L-asparagine, trace metals and 50 μg/mL ampicillin. This medium is supplemented with 0.5% glucose or 0.5% succinate. E. coli JF496 is grown at 37° C. for 8 hours. Samples (700-μL) are taken at 2-hour intervals and the OD600 is measured in order to determine the growth rate.
Growth conditions—as described above in Section 6.1
A selection of CLK-1 variants were constructed by site-directed mutagenesis and cloned into the JF496 system to assess their enzymatic activity relative to the wild type. The respective strains of JF496-clk-1 variants were cultured as described and the growth rate of each were measured. The results as shown in Table 4 indicate that certain residues and regions are not tolerant of amino acid substitution (amino acid substitution is indicated by one-letter codes).

Molecule | Activity in JF496 system
CDB 699: C. elegans CLK-1 variant, mutation E148A (protein, UniProt P48376 9-187, looked up, variant E148A) NADPH-dependent …: AHTAASRQALIEKIIRVDHAGELGADRIYAGQLAVLQGSSVGSVIKKMWDEEKEHLDTMERLAAKHNVPHTVFSPVFSVAAYALGVGSALLGKEGAMACTIAVEELIGQHYNDQLKELLADDPETHKELLKILTRLRDEALHHHDTGVEHDGMKAPAYSALKWIIQTGCKGAIAIAEKI | Inactive
CDB 710: C. elegans CLK-1 variant, mutation Y90G (protein, UniProt P48376 9-187, looked up, variant Y90G) NADPH-dependent …: AHTAASRQALIEKIIRVDHAGELGADRIYAGQLAVLQGSSVGSVIKKMWDEEKEHLDTMERLAAKHNVPHTVFSPVFSVAAGALGVGSALLGKEGAMACTIAVEELIGQHYNDQLKELLADDPETHKELLKILTRLRDEELHHHDTGVEHDGMKAPAYSALKWIIQTGCKGAIAIAEKI | Active
CDB 725: C. elegans CLK-1 variant, mutation E147A/H151Q, less active than wild type (protein, UniProt P48376 9-187, looked up, variant E147A H151Q) NADPH-dependent …: AHTAASRQALIEKIIRVDHAGELGADRIYAGQLAVLQGSSVGSVIKKMWDEEKEHLDTMERLAAKHNVPHTVFSPVFSVAAYALGVGSALLGKEGAMACTIAVEELIGQHYNDQLKELLADDPETHKELLKILTRLRDAELHQHDTGVEHDGMKAPAYSALKWIIQTGCKGAIAIAEKI | Partially active
CDB 689: C. elegans CLK-1 variant, mutation C107A (protein, UniProt P48376 9-187, looked up, variant C107A) NADPH-dependent …: AHTAASRQALIEKIIRVDHAGELGADRIYAGQLAVLQGSSVGSVIKKMWDEEKEHLDTMERLAAKHNVPHTVFSPVFSVAAYALGVGSALLGKEGAMAATIAVEELIGQHYNDQLKELLADDPETHKELLKILTRLRDEELHHHDTGVEHDGMKAPAYSALKWIIQTGCKGAIAIAEKI | Active
CDB 726: C. elegans CLK-1 variant, mutation G32D (protein, UniProt P48376 9-187, looked up, variant G32D) NADPH-dependent …: AHTAASRQALIEKIIRVDHAGELDADRIYAGQLAVLQGSSVGSVIKKMWDEEKEHLDTMERLAAKHNVPHTVFSPVFSVAAYALGVGSALLGKEGAMACTIAVEELIGQHYNDQLKELLADDPETHKELLKILTRLRDEELHHHDTGVEHDGMKAPAYSALKWIIQTGCKGAIAIAEKI | Inactive
CDB 711: C. elegans CLK-1 variant, mutation S51P (protein, UniProt P48376 9-187, looked up, variant S51P) NADPH-dependent …: AHTAASRQALIEKIIRVDHAGELGADRIYAGQLAVLQGSSVGPVIKKMWDEEKEHLDTMERLAAKHNVPHTVFSPVFSVAAYALGVGSALLGKEGAMACTIAVEELIGQHYNDQLKELLADDPETHKELLKILTRLRDEELHHHDTGVEHDGMKAPAYSALKWIIQTGCKGAIAIAEKI | Active
CDB 724: C. elegans CLK-1 variant, mutation E62L (protein, UniProt P48376 9-187, looked up, variant E62L) NADPH-dependent …: AHTAASRQALIEKIIRVDHAGELGADRIYAGQLAVLQGSSVGSVIKKMWDEEKLHLDTMERLAAKHNVPHTVFSPVFSVAAYALGVGSALLGKEGAMACTIAVEELIGQHYNDQLKELLADDPETHKELLKILTRLRDEELHHHDTGVEHDGMKAPAYSALKWIIQTGCKGAIAIAEKI | Active
CDB 728: C. elegans CLK-1 variant, mutation E112A (protein, UniProt P48376 9-187, looked up, variant E112A) NADPH-dependent …: AHTAASRQALIEKIIRVDHAGELGADRIYAGQLAVLQGSSVGSVIKKMWDEEKEHLDTMERLAAKHNVPHTVFSPVFSVAAYALGVGSALLGKEGAMACTIAVAELIGQHYNDQLKELLADDPETHKELLKILTRLRDEELHHHDTGVEHDGMKAPAYSALKWIIQTGCKGAIAIAEKI | Inactive
CDB 698: C. elegans CLK-1 variant, mutation I115H (protein, UniProt P48376 9-187, looked up, variant I115H) NADPH-dependent …: AHTAASRQALIEKIIRVDHAGELGADRIYAGQLAVLQGSSVGSVIKKMWDEEKEHLDTMERLAAKHNVPHTVFSPVFSVAAYALGVGSALLGKEGAMACTIAVEELHGQHYNDQLKELLADDPETHKELLKILTRLRDEELHHHDTGVEHDGMKAPAYSALKWIIQTGCKGAIAIAEKI | Inactive
CDB 690: C. elegans CLK-1 variant, mutation C177A (protein, UniProt P48376 9-187, looked up, variant C177A) NADPH-dependent …: AHTAASRQALIEKIIRVDHAGELGADRIYAGQLAVLQGSSVGSVIKKMWDEEKEHLDTMERLAAKHNVPHTVFSPVFSVAAYALGVGSALLGKEGAMACTIAVEELIGQHYNDQLKELLADDPETHKELLKILTRLRDEELHHHDTGVEHDGMKAPAYSALKWIIQTGAKGAIAIAEKI | Active
CDB 715: C. elegans CLK-1 variant, mutation H151A (protein, UniProt P48376 9-187, looked up, variant H151A) NADPH-dependent …: AHTAASRQALIEKIIRVDHAGELGADRIYAGQLAVLQGSSVGSVIKKMWDEEKEHLDTMERLAAKHNVPHTVFSPVFSVAAYALGVGSALLGKEGAMACTIAVEELIGQHYNDQLKELLADDPETHKELLKILTRLRDEELHAHDTGVEHDGMKAPAYSALKWIIQTGCKGAIAIAEKI | Inactive
CDB 700: C. elegans CLK-1 variant, mutation C107A/C177A (protein, UniProt P48376 9-187, looked up, variant C107A C177A) NADPH-dependent …: AHTAASRQALIEKIIRVDHAGELGADRIYAGQLAVLQGSSVGSVIKKMWDEEKEHLDTMERLAAKHNVPHTVFSPVFSVAAYALGVGSALLGKEGAMAATIAVEELIGQHYNDQLKELLADDPETHKELLKILTRLRDEELHHHDTGVEHDGMKAPAYSALKWIIQTGAKGAIAIAEKI | Active
CDB 694: C. elegans CLK-1 variant, mutation E148K (protein, UniProt P48376 9-187, looked up, variant E148K) NADPH-dependent …: AHTAASRQALIEKIIRVDHAGELGADRIYAGQLAVLQGSSVGSVIKKMWDEEKEHLDTMERLAAKHNVPHTVFSPVFSVAAYALGVGSALLGKEGAMACTIAVEELIGQHYNDQLKELLADDPETHKELLKILTRLRDEKLHHHDTGVEHDGMKAPAYSALKWIIQTGCKGAIAIAEKI | Inactive
CDB 723: C. elegans CLK-1 variant, mutation E148K/L149N (protein, UniProt P48376 9-187, looked up, variant E148K L149N) NADPH-dependent …: AHTAASRQALIEKIIRVDHAGELGADRIYAGQLAVLQGSSVGSVIKKMWDEEKEHLDTMERLAAKHNVPHTVFSPVFSVAAYALGVGSALLGKEGAMACTIAVEELIGQHYNDQLKELLADDPETHKELLKILTRLRDEKNHHHDTGVEHDGMKAPAYSALKWIIQTGCKGAIAIAEKI | Inactive
CDB 709: C. elegans CLK-1 variant, mutation Q174A (protein, UniProt P48376 9-187, looked up, variant Q174A) NADPH-dependent …: AHTAASRQALIEKIIRVDHAGELGADRIYAGQLAVLQGSSVGSVIKKMWDEEKEHLDTMERLAAKHNVPHTVFSPVFSVAAYALGVGSALLGKEGAMACTIAVEELIGQHYNDQLKELLADDPETHKELLKILTRLRDEELHHHDTGVEHDGMKAPAYSALKWIIATGCKGAIAIAEKI | Active
